Here are results for seven substances from article PMC10851439 (Biochemistry, 2024).

For data set [1], the target named is T1, NTHi SapA (Haemophilus influenzae, UniProt Q4QL73).
T1 sequence (Q4QL73 32-546): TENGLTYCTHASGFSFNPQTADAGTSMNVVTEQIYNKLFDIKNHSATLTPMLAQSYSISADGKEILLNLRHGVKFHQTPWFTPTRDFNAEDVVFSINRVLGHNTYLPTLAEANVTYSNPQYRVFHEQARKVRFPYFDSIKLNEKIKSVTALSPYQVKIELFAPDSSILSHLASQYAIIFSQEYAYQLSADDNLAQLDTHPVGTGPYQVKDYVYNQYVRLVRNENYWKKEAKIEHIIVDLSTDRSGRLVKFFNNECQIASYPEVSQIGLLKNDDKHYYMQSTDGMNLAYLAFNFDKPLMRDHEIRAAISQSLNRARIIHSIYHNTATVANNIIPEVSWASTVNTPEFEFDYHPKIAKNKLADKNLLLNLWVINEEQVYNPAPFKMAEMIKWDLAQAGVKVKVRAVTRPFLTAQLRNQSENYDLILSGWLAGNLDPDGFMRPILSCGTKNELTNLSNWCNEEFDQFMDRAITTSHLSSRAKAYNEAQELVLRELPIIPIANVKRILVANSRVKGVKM
The data set can be described thus: Spectral shift assay with fluorescently labeled SapA. It is filed as binding, nontypeable Haemophilus influenzae. Particulars: peptide up to 100 or 500 μM, triplicate.

Data set [2] concerns the target T1, NTHi SapA. The data set can be described thus: SPR single-cycle kinetics, SapA over immobilized AMPs. It is filed as binding, nontypeable Haemophilus influenzae. The following applies: LL-37 immobilized on SPR sensor chip, five increasing SapA concentrations.
For data set [3] the following is noted: at the concentrations used for affinity experiments; cited from earlier work.
Data set [4] concerns NTHi strain 86–028NP (parent strain). The data set can be described thus: Bactericidal assay, parental strain. Type of data set: cell-based, nontypeable Haemophilus influenzae. Particulars: 10 μg/mL AMP, 1 h.
Data set [5] in a line: Dynamic light scattering of LL-37. It is filed as physicochemical. The following applies: LL-37 at 1 mg/mL; data not shown.
Data set [6] has as its system NTHi 86–028NP ΔsapA mutant. Kind of data set: Bactericidal assay, ΔsapA mutant. Type of data set: cell-based, nontypeable Haemophilus influenzae. The following applies: 10 μg/mL AMP, 1 h.
For data set [7] the following is noted: cited from earlier work.
For data set [8], the target named is human α-defensin 1 (hNP-1) (human). The data set can be described thus: SPR.
Data set [9] addresses hBD-2_(loop) peptide (C2–C4 loop region of hBD-2 with C-terminal linker) (human). Kind of data set: SPR. A general note: In SPR one partner is held on a chip, and binding of the other changes the refractive index at the surface.
For data set [10], the target named is human β-defensin 3 (hBD-3) (human) (UniProt P81534). Kind of data set: SPR.
human β-defensin 3 (hBD-3) (human), sequence (P81534 23-67): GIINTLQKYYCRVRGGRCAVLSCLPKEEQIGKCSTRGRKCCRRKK
The target of data set [11] is hBD-3_(loop) peptide (C2–C4 loop region of hBD-3 with C-terminal linker) (human). The data set can be described thus: SPR.
For data set [12], the target named is human β-defensin 2 (hBD-2) (human) (UniProt O15263). Kind of data set: SPR.
human β-defensin 2 (hBD-2) (human), sequence (O15263 24-64): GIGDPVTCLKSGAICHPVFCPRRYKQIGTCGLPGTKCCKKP
The target in data set [13] is hNP-1_(loop) peptide (C2–C4 loop region of hNP-1 with C-terminal linker) (human). The data set can be described thus: SPR.
Data set [14] has as its target hBD-2_(loop) peptide (C2–C4 loop region of hBD-2 with C-terminal linker) (human). Kind of data set: SPR. This is another data set of the same source.
Data set [15] addresses hBD-3_(loop) peptide (C2–C4 loop region of hBD-3 with C-terminal linker) (human). Kind of data set: SPR. This is another data set of the same source.
Data set [16] concerns the target hNP-1_(loop) peptide (C2–C4 loop region of hNP-1 with C-terminal linker) (human). The data set can be described thus: SPR. The source holds these as a separate data set.

By Kd is commonly meant the constant that tells how readily two partners part at equilibrium.

Where two headings read alike, the source gives them in different places.

As to “LL-37: alpha helical peptide, the only member of the cathelicidin family found in humans”, in the data set with NTHi SapA [1], the “affinity to labeled SapA, result in words” value (shortened to “affinity to labeled SapA”) was “low affinity”. In addition, the “SapA binding to LL-37 (SPR), result in words” value in the data set with NTHi SapA [2] is on record as “low affinity”. Besides, the “oligomeric state in solution” value in data set [3] was “higher order oligomers”. Moreover, the “survival of the parent strain at 10 μg/mL” value in data set [4] was “neither the parent strain nor the ΔsapA mutant survived”. In addition, in [5], the “aggregation by dynamic light scattering” value is on record as “aggregated at high concentrations”. Further, the “survival of the ΔsapA mutant at 10 μg/mL” value in [6] is listed as “neither the parent strain nor the ΔsapA mutant survived”.
On to SSYGT [hNP-1SSYGT], for which the “affinity to labeled SapA” value at NTHi SapA [1] was “completely abolished affinity”.
For SSYKQ [hBD-2SSYKQ], the “affinity to labeled SapA” value on NTHi SapA [1] was “completely abolished affinity”.
Regarding PSSEQ [hBD-3PSSEQ], at NTHi SapA [1], the “affinity to labeled SapA” value is “completely abolished affinity”.
Turning to protamine, in data set [7], the net charge result was “+21”.
Consider PR-39, for which, in [7], the net charge entry was “+10”.
For the substance “NTHi SapA (residues 32–546), wild type (from UniProt Q4QL73 32-546) (natural protein)”, the Kd in data set [8] amounted to 4 nM; in data set [9], 9.5 nM; in [10], 10.5 nM; in data set [11], 17.2 nM; in data set [12] it was 17.5 nM; in [13], 17.1 nM. This substance also came in with a Kd in data set [16] of 3.8 nM. The ka1 (two-state model, first step) in data set [8] came to 360000 M⁻¹ s⁻¹; in data set [9], 750000 M⁻¹ s⁻¹; in data set [10], 710000 M⁻¹ s⁻¹; in data set [12] it was 630000 M⁻¹ s⁻¹; in [14], 760000 M⁻¹ s⁻¹; in data set [15], 280000 M⁻¹ s⁻¹. Further, in data set [16], the ka1 (two-state model, first step) was 880000 M⁻¹ s⁻¹. Besides, the ka2 (two-state model, second step) in data set [8] worked out at 0.0061 s⁻¹; in data set [9], 0.0024 s⁻¹; in data set [10], 0.0059 s⁻¹; in data set [11], 0.004 s⁻¹; in data set [12], 0.013 s⁻¹; in [13], 0.0026 s⁻¹. Besides, the ka2 (two-state model, second step) in data set [14] turned out to be 0.0095 s⁻¹; in data set [15], 0.012 s⁻¹; in data set [16], 0.0064 s⁻¹. Also, the kd1 (two-state model, first step) in data set [8] was 0.012 s⁻¹; in data set [9], 0.019 s⁻¹; in [10], 0.019 s⁻¹; in data set [11], 0.033 s⁻¹; in data set [12], 0.047 s⁻¹; in data set [13], 0.023 s⁻¹. Further, the kd1 (two-state model, first step) in data set [14] was 0.034 s⁻¹; in data set [15], 0.028 s⁻¹. Also, the kd2 (two-state model, second step) stood at 0.00069 s⁻¹ in data set [8]; 0.0014 s⁻¹ in data set [9]; 0.0022 s⁻¹ in data set [10]; 0.003 s⁻¹ in data set [11]; 0.0026 s⁻¹ in data set [12]; 0.0019 s⁻¹ in data set [13]. Further, the kd2 (two-state model, second step) in [14] is 0.00024 s⁻¹; in data set [15], 0.00012 s⁻¹; in data set [16], 0.00045 s⁻¹.
